This passage reports Kd results from article PMC2697266.

pKd: −log10 of the molar value.

In this assay the target is H3_(1-15)K4me3 peptide with an added C-terminal Tyr (UniProt P68431). In words: ITC.

In turn, “Recombinant JARID1A_(PHD3) protein used for calorimetry (domain or fragment)” showed a pKd of 6.12.

By pKd is commonly meant −log10 of the Kd, conventionally taken in molar units. Low values mean a large Kd, high ones a small Kd.
